Data taken from US20220204629A1 (NEW YORK UNIVERSITY, published 2022).

B1: G9.1-8m13 Fab (Fab, V domains shown)
VH: EVQLVESGGGLVQPGGSLRLSCAASGFTVSSSSIHWVRQAPGKGLEWVAYIYPYSSSSSYADSVKGRFTISADTSKNTAYLQMNSLRAEDTAVYYCARYSTYSSKWVWGMDYWGQGTLVTVSS
VL: DIQMTQSPSSLSASVGDRVTITCRASQSVSSAVAWYQQKPGKAPKLLIYSASSLYSGVPSRFSGSRSGTDFTLTISSLQPEDFATYYCQQSYYDSNPITFGQGTKVEIKR
notes: Fab purified from E. coli; also called purified G9.1-8m13 Fab; 9.1-8mut13
B2: G9.1-8m13 mIgG2a (antibody, V domains shown)
VH: B1 VH
VL: B1 VL
notes: also called purified G9.1-8m13 mIgG2a molecule
B3: G9.2-17 human IgG4 (antibody, V domains shown)
VH: EVQLVESGGGLVQPGGSLRLSCAASGFTVSSSSIHWVRQAPGKGLEWVAYISSSSGYTYYADSVKGRFTISADTSKNTAYLQMNSLRAEDTAVYYCARYWSYPSWWPYRGMDYWGQGTLVTVSS
VL: DIQMTQSPSSLSASVGDRVTITCRASQSVSSAVAWYQQKPGKAPKLLIYSASSLYSGVPSRFSGSRSGTDFTLTISSLQPEDFATYYCQQSSTDPITFGQGTKVEIKR
notes: also called G9.2-17 hIgG4; G9.2-17 IgG4
B4: G9.2-17 mIgG1 (antibody, V domains shown)
VH: B3 VH
VL: B3 VL
notes: also called mouse IgG1 version of G9.2-17; mIgG1 G9.2-17

Columns and labels:
[1] = biological target: T1, human Galectin-9 CRD1 (residues 1-148) (human, UniProt O00182 1-148, biotinylated in vitro with BirA at the Avitag); assay: bead-based binding assay
T1 construct: also called CRD1 domain of galectin-9; not shown: Avitag left upstream after thrombin cleavage of the GST fusion (pGEX)
Procedure: The affinities of the antibodies were assessed using a bead-based assay as previously described (Nishikori et al., J Mol Biol, 2012, 424, 391-399) and surface plasmon resonance (SPR). In the bead-based assay, a biotinylated protein (either a Galectin-9 sample or a Fab sample) was immobilized on streptavidin-coated Dynabeads M280 via the biotin-streptavidin interaction. After blocking the excess biotin-binding sites on the beads using unconjugated biotin, binding titration was performed by incubating the second component (i.e., Fab for immobilized Galectin-9 or vice versa), followed by quantification using a dye-labeled neutravidin (ThermoFisher) and flow cytometry analysis. In experiments where the second component is an IgG, a dye-labeled anti-human IgG or anti-mouse IgG antibody was used for detection.
The binding activity of clone G9.1-8m13 is evaluated using conventional methods.

[2] = biological target: T2, human Galectin-9 CRD2 (residues 218-355) (human, UniProt O00182 218-355, biotinylated in vitro with BirA at the Avitag (where immobilised)); assay: bead based binding, human CRD2
T2 construct: also called human gal-9 CRD2; wild-type Galectin-9 CRD2; not shown: N-terminal hexahistidine tag, Avitag and TEV cleavage site of the pHBT vector

[3] = biological target: human Galectin-9 CRD2 L279A mutant (human, UniProt O00182 218-355, immobilised on streptavidin coated beads (biotinylated)); assay: mutant on streptavidin beads, G9.2-17 titrated
Procedure: (§1) FIG. 17 depicts a bar graph showing the results of epitope mapping studies of gal-9 CRD2 using alanine scanning to characterize G9.2-17 binding. Galectin-9 CRD2 mutants were generated using site-directed mutagenesis. Mutants were immobilized onto streptavidin coated beads and G9.2-17 was titrated to generate a saturation curve. KD values were calculated by fitting curves to Michaelis Menton kinetics. ΔΔG values of binding for each mutant versus wild-type galectin shown. Arrows indicate values that are outside the limit of detection for the assay. Higher ΔΔG values represent greater contribution to G9.2-17 epitope. Mutations were mapped onto the surface of gal CRD2 crystal structure (PDB 3nv4).
(§2) To determine the epitope of G9.2-17 on galectin-9 CRD2, we first mutated residues in several positions throughout CRD2 including R239, which is crucial for carbohydrate binding (Zhu et al., 2005). Only one mutation, W277K, decreased G9.2-17 binding. […] To further map the binding patch of G9.2-17, residues that are spatially adjacent to W277 were mutated to alanine and their binding was assessed. W277A and L279A result in complete abrogation of G9.2-17 binding in our assay. […] These residues are located adjacent in space in the beta-sheet, and form a patch on the back side of CRD2 relative to its carbohydrate recognition site.

[4] = biological target: human Galectin-9 CRD2 W277A mutant (human, UniProt O00182 218-355, immobilised on streptavidin coated beads (biotinylated)); assay: mutant on streptavidin beads, G9.2-17 titrated
Procedure: as §1, §2

[5] = biological target: T1, human Galectin-9 CRD1 (residues 1-148); assay: bead assay, flow cytometry: biotinylated Galectin-9 CRD1 on streptavidin beads, G9.2-17 human IgG4 titrated
From the text: For further characterization, one clone, […] (a human IgG4 molecule) was screened for CRD specificity. Biotinylated Galectin-9 CRD1 or CRD2 was immobilized onto streptavidin-coated magnetic beads. The beads were blocked with excess biotin, followed by titration of the G9.2-17 human IgG4 antibody. The beads were then stained and quantified via flow cytometry.

rat galectin-9 CRD2 [6] = biological target: T3, rat galectin-9 CRD2 (rat, UniProt P97840 226-354, limits assumed); assay: biolayer interferometry, G9.2-17 captured on anti-Fab probes, rat gal-9 CRD2 in solution, global fit
T3 construct: domain: CRD2; Only two short stretches of the rat protein are given; also called CRD2 domain of rat galectin-9; rat gal-9 CRD2
Procedure: (§3) FIGS. 16A-16D include graphs showing biolayer interferometry analysis to measure binding affinity to human (FIG. 16A), mouse (FIG. 16B), primate (FIG. 16C) or rat (FIG. 16D) gal-9 CRD2. G9.2-17 was captured onto anti-Fab probes and incubated either recombinant human, mouse, primate or rat gal-9 CRD2. Global fit, shown in black line, was used to calculate the dissociation constants. Representative data from triplicate runs shown.

[7] = biological target: T2, human Galectin-9 CRD2 (residues 218-355); assay: biolayer interferometry, G9.2-17 captured on anti-Fab probes, human gal-9 CRD2 in solution, global fit
Procedure: as §3

[8] = biological target: T4, cynomolgus monkey galectin-9 CRD2 (cynomolgus monkey, UniProt A0A7N9IHL9 218-355); assay: biolayer interferometry, G9.2-17 captured on anti-Fab probes, primate gal-9 CRD2 in solution, global fit
T4 construct: domain: CRD2; Only two short stretches of a macaque protein are given; also called CRD2 domain of cynomolgus galectin-9; primate gal-9 CRD2
Procedure: as §3

[9] = biological target: T4, cynomolgus monkey galectin-9 CRD2; assay: bead based binding, cynomolgus CRD2
[10] = biological target: T2, human Galectin-9 CRD2 (residues 218-355); assay: ELISA, antibody titrated over immobilized human CRD2
rat galectin-9 CRD2 [11] = biological target: T3, rat galectin-9 CRD2; assay: bead based binding, rat CRD2
[12] = biological target: T1, human Galectin-9 CRD1 (residues 1-148); assay: bead based binding

T1 sequence (O00182 1-148): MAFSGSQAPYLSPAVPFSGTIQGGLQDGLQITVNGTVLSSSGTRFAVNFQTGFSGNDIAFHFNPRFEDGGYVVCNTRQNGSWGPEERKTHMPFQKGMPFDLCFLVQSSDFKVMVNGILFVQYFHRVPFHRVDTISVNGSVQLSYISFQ
T2 sequence (O00182 218-355 limits assumed): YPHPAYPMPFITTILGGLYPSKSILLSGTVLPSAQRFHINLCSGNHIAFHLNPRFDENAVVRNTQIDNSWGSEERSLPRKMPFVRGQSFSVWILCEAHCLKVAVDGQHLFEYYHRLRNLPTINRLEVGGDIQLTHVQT
T3 sequence (P97840 226-354 limits assumed): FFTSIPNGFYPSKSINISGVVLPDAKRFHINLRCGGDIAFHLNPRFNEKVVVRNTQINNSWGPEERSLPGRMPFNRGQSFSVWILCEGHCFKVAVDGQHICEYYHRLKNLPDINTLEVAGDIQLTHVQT
human Galectin-9 CRD2 L279A mutant, sequence (O00182 218-355 L311A): as the sequence (O00182 218-355 limits assumed) above, with L94A counted along it
human Galectin-9 CRD2 W277A mutant, sequence (O00182 218-355 W309A): as the sequence (O00182 218-355 limits assumed) above, with W92A counted along it

Binder | Kd [1] [pM] | Kd [2] [pM] | binding result [3] | binding result [4] | binding result [5] | Kd (rat galectin-9 CRD2 [6]) [pM] | Kd [7] [pM] | Kd [8] [pM] | Kd [9] [pM] | Kd [10] [pM] | Kd (rat galectin-9 CRD2 [11]) [pM] | binding result [12]
B1 | 20700 | – | – | – | – | – | – | – | – | – | – | –
B2 | 300 | – | – | – | – | – | – | – | – | – | – | –
B3 | – | 150 | no binding | no binding | no binding (tested: 50 nM) | 2710 | 183 | 615 | 310 | 420 | 310 | –
B4 | – | 180 | – | – | – | – | – | – | 300 | 450 | 350 | no binding
